Test [1] concerns the target Human CD16A 158V (human). Briefly: ELISA. (In general: An ELISA detects its analyte on a solid surface through an enzyme-linked reagent.)
Target sequence in this assay (chain, as listed by the source): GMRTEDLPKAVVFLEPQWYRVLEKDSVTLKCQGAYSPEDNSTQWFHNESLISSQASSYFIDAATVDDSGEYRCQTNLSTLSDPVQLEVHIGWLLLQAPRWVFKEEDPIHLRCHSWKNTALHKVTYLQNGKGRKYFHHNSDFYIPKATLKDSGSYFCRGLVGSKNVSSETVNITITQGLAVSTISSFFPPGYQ
Test [2] has as its target Human CD16A 158F (human). Briefly: BLI. (In general: In BLI a coated tip is dipped into the sample, and binding shifts an interference pattern.)
Test [3] concerns the target Human CD16A 158V (human). The test can be described thus: BLI.
The target of test [4] is Human CD16A 158F (human). Briefly: ELISA.
Target sequence in this assay (chain, as listed by the source): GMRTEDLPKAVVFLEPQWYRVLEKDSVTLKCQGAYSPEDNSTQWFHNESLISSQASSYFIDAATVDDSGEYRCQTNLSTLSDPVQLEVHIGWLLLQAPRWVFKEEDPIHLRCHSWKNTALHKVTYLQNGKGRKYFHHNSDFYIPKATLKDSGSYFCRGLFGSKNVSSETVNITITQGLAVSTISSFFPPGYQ
For test [5], the target named is Human CD16A 158V (human). Briefly: ELISA. The source holds these as a separate data set.
For test [6], the target named is T1, Human CD16B (human).
T1 chain: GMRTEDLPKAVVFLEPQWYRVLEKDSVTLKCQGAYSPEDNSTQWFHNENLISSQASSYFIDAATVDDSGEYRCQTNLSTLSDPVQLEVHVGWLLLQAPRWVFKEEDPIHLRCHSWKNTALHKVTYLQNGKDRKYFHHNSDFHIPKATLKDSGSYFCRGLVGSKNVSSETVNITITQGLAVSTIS
The test can be described thus: ELISA.

Like-named read-outs stand apart in the source and are kept apart here.

B1: CD16-VH-RM72 (antibody)
chain: EVQLVESGGGLVQPGGSLRLSCAASGFTFSNYGMSWVRQAPGKGLEWIGSIYYSGQTNYNPSLKSLVTISRDNSKNTLYLQMNSLRAEDTATYYCARESIDYWGQGTLVTVSS
What is called EC50 is the concentration that produces a half-maximal response. The Kd is the concentration at which binding is half-saturated. Regarding B1, the EC50 in test [1] came to 1.86 nM; in test [4], 1.89 nM. For the same molecule, the figures for the Kd in test [2] and in test [3] were 4.58 nM and 4.38 nM, respectively.

B2: CD16-VH-RM81 (antibody)
chain: EVQLVESGGGLVQPGGSLRLSCAASGFTFSNYGMSWVRQAPGKGLEWIGSIYYTGSTNYNPSLKSLVTISRDNSKNTLYLQMNSLRAEDTATYYCARESIDYWGQGTLVTVSS
As to B2, the EC50 in test [1] amounted to 1.8 nM; in test [4], 1.25 nM. The Kd in test [2] came to 2.45 nM; in test [3] it was 2.69 nM.

B3: CD16-VH-RM73 (antibody)
chain: EVQLVESGGGLVQPGGSLRLSCAASGFTFSNYGMSWVRQAPGKGLEWIGSIYYSGTTNYNPSLKSLVTISRDNSKNTLYLQMNSLRAEDTATYYCARESIDYWGQGTLVTVSS
As for B3, the values for the EC50 in test [1] and in test [4] were 4.2 nM and 3.29 nM, respectively. Besides, the values for the Kd in test [2] and in test [3] were 2.41 nM and 8.2 nM, respectively.

B4: CD16-VH-RM76 (antibody)
chain: EVQLVESGGGLVQPGGSLRLSCAASGFTFSNYGMSWVRQAPGKGLEWIGSIYYSGETNYNPSLKSLVTISRDNSKNTLYLQMNSLRAEDTATYYCARESIDYWGQGTLVTVSS
B4: the concentration for a half-maximal effect (EC50) in test [1] is 2.71 nM; in test [4], 2.2 nM. The Kd in test [2] was found to be 6.06 nM; in test [3], 16.2 nM.

B5: BM156-01 (antibody)
chain: EVQLVESGGGLVQPGGSLRLSCAASGFTFSNYGMSWVRQAPGKGLEWIGSIYYSGSTNYNPSLKSLVTISRDNSKNTLYLQMNSLRAEDTATYYCARESIDYWGQGTLVTVSS
In the case of B5, the EC50 was found to be 4.57 nM in test [1] and 7.66 nM in test [4]. Besides, the Kd in test [2] is 5.15 nM; in test [3], 20.6 nM.

B6: CD16-VH-RM82 (antibody)
chain: EVQLVESGGGLVQPGGSLRLSCAASGFTFSNYGMSWVRQAPGKGLEWIGSIYYSVSTNYNPSLKSLVTISRDNSKNTLYLQMNSLRAEDTATYYCARESIDYWGQGTLVTVSS
For B6, the figures for the concentration giving a half-maximal response (EC50) in test [1] and in test [4] were 3.2 nM and 3.29 nM, respectively. The molecule also showed a dissociation constant Kd in test [2] of 5.26 nM.

B7: CD16-VH-RM80 (antibody)
chain: EVQLVESGGGLVQPGGSLRLSCAASGFTFSNYGMSWVRQAPGKGLEWIGSIYYDGSTNYNPSLKSLVTISRDNSKNTLYLQMNSLRAEDTATYYCARESIDYWGQGTLVTVSS
Turning to B7, the 50% effective concentration (EC50) in test [1] worked out at 3.32 nM; in test [4], 3.03 nM. This molecule also came in with a Kd in test [2] of 3.99 nM.

B8: CD16-VH-RM75 (antibody)
chain: EVQLVESGGGLVQPGGSLRLSCAASGFTFSNYGMSWVRQAPGKGLEWIGSIYYSGDTNYNPSLKSLVTISRDNSKNTLYLQMNSLRAEDTATYYCARESIDYWGQGTLVTVSS
Consider B8, for which the EC50 in test [1] worked out at 2.06 nM; in test [4], 3.04 nM. Further, the dissociation constant (Kd) in test [2] was 2.62 nM; in test [3] it was 3.51 nM.

B9: CD16-VH-RM77 (antibody)
chain: EVQLVESGGGLVQPGGSLRLSCAASGFTFSNYGMSWVRQAPGKGLEWIGSIYYNGSTNYNPSLKSLVTISRDNSKNTLYLQMNSLRAEDTATYYCARESIDYWGQGTLVTVSS
Turning to B9, the EC50 in test [1] turned out to be 1.42 nM; in test [4], 1.21 nM. Also, the dissociation constant Kd in test [2] amounted to 1.24 nM; in test [3], 5.31 nM.

B10: BM130-92 (Margetuximab) (antibody)
chain 1: QVQLQQSGPELVKPGASLKLSCTASGFNIKDTYIHWVKQRPEQGLEWIGRIYPTNGYTRYDPKFQDKATITADTSSNTAYLQVSRLTSEDTAVYYCSRWGGDGFYAMDYWGQGASVTVSSASTKGPSVFPLAPSSKSTSGGTAALGCLVKDYFPEPVTVSWNSGALTSGVHTFPAVLQSSGLYSLSSVVTVPSSSLGTQTYICNVNHKPSNTKVDKRVEPKSCDKTHTCPPCPAPELVGGPSVFLLPPKPKDTLMISRTPEVTCVVVDVSHEDPEVKFNWYVDGVEVHNAKTKPPEEQYNSTLRVVSVLTVLHQDWLNGKEYKCKVSNKALPAPIEKTISKAKGQPREPQVYTLPPSRDELTKNQVSLTCLVKGFYPSDIAVEWESNGQPENNYKTTPLVLDSDGSFFLYSKLTVDKSRWQQGNVFSCSVMHEALHNHYTQKSLSLSPGK
chain 2: DIVMTQSHKFMSTSVGDRVSITCKASQDVNTAVAWYQQKPGHSPKLLIYSASFRYTGVPDRFTGSRSGTDFTFTISSVQAEDLAVYYCQQHYTTPPTFGGGTKVEIKRTVAAPSVFIFPPSDEQLKSGTASVVCLLNNFYPREAKVQWKVDNALQSGNSQESVTEQDSKDSTYSLSSTLTLSKADYEKHKVYACEVTHQGLSSPVTKSFNRGEC
For the molecule B10, in test [5], the EC50 came out at 45.1 nM. In test [6], the binding result was “no binding”.

These data come from patent publication US20260327314 (published 2026).
